According to US20070254313A1, “Gnal Splice Variant and Uses Thereof” (AstraZeneca AB, priority 2003, published 2007):

Tests used:
Assay in all cases: cell-based or functional assay
[1] = biological target: human adenosine A2a receptor (ADORA2A) (human) (UniProt P29274)
[2] = biological target: human dopamine D1A receptor (human) (UniProt P21728)
[3] = biological target: human β2 adrenergic receptor (human) (UniProt P07550)

human dopamine D1A receptor (human), sequence (P21728 whole entry): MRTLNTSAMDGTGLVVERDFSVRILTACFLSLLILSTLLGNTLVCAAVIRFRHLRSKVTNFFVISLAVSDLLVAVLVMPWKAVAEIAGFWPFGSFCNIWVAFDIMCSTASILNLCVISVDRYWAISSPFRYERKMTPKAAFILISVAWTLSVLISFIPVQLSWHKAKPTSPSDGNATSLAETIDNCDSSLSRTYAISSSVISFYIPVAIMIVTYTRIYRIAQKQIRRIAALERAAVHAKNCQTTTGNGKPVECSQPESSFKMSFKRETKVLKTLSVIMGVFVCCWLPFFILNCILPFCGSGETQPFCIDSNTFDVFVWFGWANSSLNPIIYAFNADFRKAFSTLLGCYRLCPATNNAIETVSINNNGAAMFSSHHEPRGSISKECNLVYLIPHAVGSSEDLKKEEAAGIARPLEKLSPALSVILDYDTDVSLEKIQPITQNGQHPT
human adenosine A2a receptor (ADORA2A) (human), sequence (P29274 whole entry): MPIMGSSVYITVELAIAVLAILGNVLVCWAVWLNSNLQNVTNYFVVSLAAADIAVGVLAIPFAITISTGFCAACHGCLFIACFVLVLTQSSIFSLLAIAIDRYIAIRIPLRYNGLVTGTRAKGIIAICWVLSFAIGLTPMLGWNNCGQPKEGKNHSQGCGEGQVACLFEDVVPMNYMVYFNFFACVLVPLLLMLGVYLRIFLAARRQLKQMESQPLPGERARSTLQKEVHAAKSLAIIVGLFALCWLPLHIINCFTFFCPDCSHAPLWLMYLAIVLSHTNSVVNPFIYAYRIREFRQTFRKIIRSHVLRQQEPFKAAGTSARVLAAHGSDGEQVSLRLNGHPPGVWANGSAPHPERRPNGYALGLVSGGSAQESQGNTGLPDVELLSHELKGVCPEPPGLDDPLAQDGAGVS

B1: human XLGolf protein (protein)
chain: MGLCYSLRPLLFGGPGDDPCAASEPPVEDAQPAPAPALAPVRAAARDTARTLLPRGGEGSPACARPKADKPKEKRQRTEQLSAEEREAAKEREAVKEARKVSRGIDRMLRDQKRDLQQTHRLLLLGAGESGKSTIVKQMRILHVNGFNPEEKKQKILDIRKNVKDAIVTIVSAMSTIIPPVPLANPENQFRSDYIKSIAPITDFEYSQEFFDHVKKLWDDEGVKACFERSNEYQLIDCAQYFLERIDSVSLVDYTPTDQDLLRCRVLTSGIFETRFQVDKVNFHMFDVGGQRDERRKWIQCFNDVTAIIYVAACSSYNMVIREDNNTNRLRESLDLFESIWNNRWLRTISIILFLNKQDMLAEKVLAGKSKIEDYFPEYANYTVPEDATPDAGEDPKVTRAKFFIRDLFLRISTATGDGKHYCYPHFTCAVDTENIRRVFNDCRDIIQRMHLKQYELL
An induction of GTPγS agonist signal over baseline, A2a receptor co-expressed with XLGolf in Sf9 cells [1] of 3 fold, an efficacy (Emax) of dopamine-induced [35S]-GTPγS binding, membranes of Sf9 cells co-expressing DRD1 and XLGolf [2] of 404% and a magnitude of (-)-isoproterenol-induced GTPγS binding above the baseline, membranes of Sf9 cells expressing β2 receptor and XLGolf (% above the baseline) [3] of 700 were found for B1 in this work.
